According to patent US20180057553A1, “CONJUGATE AND USE THEREOF” (The University of Tokyo, priority 2015, published 2018):

B1: intelectin: a kind of lectin; amino acid sequence of human intelectin-1 is SEQ ID NO: 1; wild type forms a trimer (protein, listed as Homo sapiens)
chain: MNQLSFLLFLIATTRGWSTDEANTYFKEWTCSSSPSLPRSCKEIKDECPSAFDGLYFLRTENGVIYQTFCDMTSGGGGWTLVASVHENDMRGKCTVGDRWSSQQGSKADYPEGDGNWANYNTFGSAEAATSDDYKNPGYYDIQAKDLGIWHVPNKSPMQHWRNSSLLRYRTDTGFLQTLGHNLFGIYQKYPVKYGEGKCWTDNGPVIPVVYDFGDAQKTASYYSPYGQREFTAGFVQFRVFNNERAANALCAGMRVTGCNTEHHCIGGGGYFPEASPQQCGDFSGFDWSGYGTHVGYSSSREITEAAVLLFYR
modifications: human intelectin-1
notes: a kind of lectin; wild type forms a trimer
B2: C31, 48S mutant of human intelectin-1: cysteine residues at position 31 and 48 substituted with serine; produced as a monomer; SEQ ID NO: 9 (protein, listed as Homo sapiens)
chain: MNQLSFLLFLIATTRGWSTDEANTYFKEWTSSSSPSLPRSCKEIKDESPSAFDGLYFLRTENGVIYQTFCDMTSGGGGWTLVASVHENDMRGKCTVGDRWSSQQGSKADYPEGDGNWANYNTFGSAEAATSDDYKNPGYYDIQAKDLGIWHVPNKSPMQHWRNSSLLRYRTDTGFLQTLGHNLFGIYQKYPVKYGEGKCWTDNGPVIPVVYDFGDAQKTASYYSPYGQREFTAGFVQFRVFNNERAANALCAGMRVTGCNTEHHCIGGGGYFPEASPQQCGDFSGFDWSGYGTHVGYSSSREITEAAVLLFYR
modifications: human intelectin-1 C31S, C48S variant
B3: mouse intelectin-1: produced as a monomer; 51 amino acid residues different from human intelectin-1; SEQ ID NO: 7 (protein, listed as Mus musculus)
chain: MTQLGFLLFIMVATRGCSAAEENLDTNRWGNSFFSSLPRSCKEIKQEHTKAQDGLYFLRTKNGVIYQTFCDMTTAGGGWTLVASVHENNMRGKCTVGDRWSSQQGNRADYPEGDGNWANYNTFGSAEAATSDDYKNPGYFDIQAENLGIWHVPNKSPLHNWRKSSLLRYRTFTGFLQHLGHNLFGLYKKYPVKYGEGKCWTDNGPALPVVYDFGDARKTASYYSPSGQREFTAGYVQFRVFNNERAASALCAGVRVTGCNTEHHCIGGGGFFPEGNPVQCGDFASFDWDGYGTHNGYSSSRKITEAAVLLFYR
modifications: mouse intelectin-1

Assays:
[1] = Binding of intelectin to beads having a diol group (SDS-PAGE, Examples 1 and 10); settings: 18 hours at 25 deg C; eluted with 15% glycerol; compared with polystyrene or hydroxy beads
Protocol: Beads having a diol group on the surface and beads not having a diol group on the surface were prepared. Beads obtained by conjugating 3-amino-1-propanediol bound to the surface of polystyrene beads via an amino group (diol beads), and beads obtained by alkaline hydrolyzing the epoxy group of Sepharose beads with 1,4-bis(2,3-epoxypropyl)butane introduced (epoxy-activated Sepharose 6B (GE Healthcare Biosciences)) (diol Sepharose beads) were used as the beads having a diol group on the surface. Polystyrene beads and beads obtained by conjugating 3-amino-1-propanol to polystyrene beads (hydroxy beads) were used as the beads not having a diol group on the surface.
Each kind of beads were added to 500 microliters of a medium containing intelectin or a medium not containing intelectin, and were stirred for 18 hours at 25 deg C. Recombinant human intelectin-1 was used as intelectin. Subsequently, the beads were collected by centrifugation and washed once with buffer, and the samples was eluted with buffer containing 15% glycerol. Samples were separated by SDS polyacrylamide gel electrophoresis (SDS-PAGE), and proteins were stained using Coomassie Brilliant Blue.
Beads having a diol group on the surface and beads not having a diol group on the surface were prepared. Diol beads, diol Sepharose brads, and hydroxy beads, that were used in Example 1, were used as the beads.
First, beads were added to 5 mL of a medium containing recombinant mouse intelectin-1 or 1 mL of a medium containing C31, 48S mutant of human intelectin-1, and the samples were stirred for 18 hours at 25 deg C.
Subsequently, the beads were collected by centrifugation and washed once with buffer, and the samples were eluted with buffer containing 15% glycerol. The samples were then separated by SDS-polyacrylamide gel electrophoresis (SDS-PAGE), and proteins were stained with Coomassie Brilliant Blue.

[2] = Adsorption of intelectin in human serum to diol modified silica gel column (Example 14); assay type: binding
Protocol: 40 microliters of 50% fresh human serum diluted with 0.1% Tween 20-150 mM NaCl—50 mM phosphate buffer (pH 7.3) added with or not added with 10 mM EDTA was added to a gel filtration chromatography column (TSKgel G3000 SWXL Tosoh Corporation) utilizing diol-modified silica gel as the carrier, and gel filtration was performed using 0.1% Tween 20—150 mM NaCl—50 mM phosphate buffer (pH 7.3) as solvent. Subsequently, the intelectin concentration in the elution fraction was measured using ELISA.

Row | Molecule | binding to beads having a diol group (SDS-PAGE) [1] | binding of serum intelectin to the column ([2]; human serum added with 10 mM EDTA) | binding of serum intelectin to the column ([2]; human serum not added with EDTA)
1 | B1 | selectively bind to diol beads and diol Sepharose beads | did not bind to the column | adsorbed to the column
2 | B2 | specifically bind to diol beads and diol Sepharose beads |  | 
3 | B3 | specifically bind to diol beads and diol Sepharose beads |  | 
